Data as given in the domain aggregation screens of Martell et al. (2025).

Test: soluble fraction after stress (log2 fold change); higher = more stays soluble; pooled small domains, quantitative proteomics
Conditions: stress: 50 degC
Outline: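 After stress at 50°C, the amount of each protein still soluble was measured. This was done on pooled custom libraries of small protein domains, using high-throughput quantitative proteomics. The figure given is a base-two log fold change and stands for aggregation propensity, with higher values meaning more protein stays in solution.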

HMKGILVPASSIISDGDKNYVWTVEKGKAKKVEVTLGNADAENQEISSGLTKDSKVITNPTDSLKDGQEV
soluble fraction (log2): 0.162

HMEVKEVDYSAFMTMTEENSISKVEIEENQILFKKKGDDQTTYKTARMDDPALITRLHDQGVDFTGQ
soluble fraction (log2): 0.0677

HMELSAQEIGRRLRIARENADIRQDDAAQVIGMSRPTLVSIEKGVRRVRIQEIQMLARHYGVSVNALLR
soluble fraction (log2): -2.14

HMQKLKINKYKDPKGEIRYYIASTIRNGNKSSTHNLLSLGKHSDLLKEHSDVEAYLKERLNEAMESGI
soluble fraction (log2): -0.145

HMDAQEAAWARKMMETLPEKQKLSVALRIEEGLSFKEIGEIIGSSEGAARVNYFHGIRRLRELL
soluble fraction (log2): -0.688

HMLESVMHSRIAEIISREGTAPAHMSMQEKIRVVHKLDADGILMMKGAVAEIADQLSVSVPTIYRYLNKPQ
soluble fraction (log2): -1.8

HMEANPLTDREKEVLELVADGKNTKEIAQELSIKSGTVRNYISMILEKLEVKNRIEAITRSKEKGWF
soluble fraction (log2): 0.144

HMSFFNGNQMKILRKKLQLNQEEMGEKLGIKKSYVSQLENNRKEITEEIDQILQELEQEYQDKM
soluble fraction (log2): -0.323

HMIGIEALAGEIDRVRQVLTGGGGLSDVQLFSQLKALNEIKAALGASPDPRAPELVQRVDQLLEAAFRS
soluble fraction (log2): -0.0467

HMYAHTPEMEAMNELGLEPPVTLDEIKKTYKTLVKKYHPDHNKEDPEAEEKLKKVNMAYTILKVAYTEFEK
soluble fraction (log2): -0.147

HMPVNEEFKRLIDKIKYEFSINQAQISERLGVKSTYLSDMINGRVPYNESMQKKIHEVFHIG
soluble fraction (log2): -0.0665

HMGEPVASSREVAKRFGKEHKHVLAAIRQILVAENSATKFFHETAFEYRGQRFPEYLMNRDGFALLAMGF
soluble fraction (log2): -3.1

HMVKFGERVKQLRLSAGMTQEQLAERIWVTKAAISNYELSERNPSPETIIKIAGVFGVTTDYLLGLED
soluble fraction (log2): -0.5

HMEDPFLWVEKLGSSDWIEREESAEKLLEAGEASVEALRTALTHPDLEVRERVRELLSVISPL
soluble fraction (log2): -0.104

HMVNYKEILRLSAEGNSQRQIAAGSGNSRNTVIEVLEAARARGITWPLDEPVTNEQLEAILFPNRY
soluble fraction (log2): 0.134

HMGADSFTGYTPIHKIDNPSDGINDGASYVVYFQKDGTDPTEFYKAVNANASTLAQLTSGTEYDLASSKKL
soluble fraction (log2): 0.0305

HMEKSLKELAQGVGQKVLTSGRPYHFDPMSAMERRVVHMTLMEMDGLRTESEGEGRFRHVVVFPA
soluble fraction (log2): -0.184

HMEQIPEEYKKIYSLITDIPININDIAKKSLLELREVSSKLTMLELDGKVVKLPGNMYIRGDL
soluble fraction (log2): 0.0726

HMIMTTKVSGIMFDKFNPSAILNINGMDYLVRSGDIINGYKILSIGQETVTVQYGANVYKASVG
soluble fraction (log2): -2.26

HMEMLQRFIFLENVSSTQVESAIKELHPNLNLKRVKLSFPGADTVLLKGPKQDLELAEELIRHLDRSE
soluble fraction (log2): -0.0342

HMEDTSTLSIKHKIKELINQESPQAILSDDKLVELLAAQGIKIARRTIAKYRETMNIPTSAERKRQKRPP
soluble fraction (log2): 0.479

HMDSLEIEEPITVKSLSAASGLKISDIIRKLMQEGIMATANQVIDREQAEAVLIDYNVDLVVKR
soluble fraction (log2): -0.248

HMDELIKQVANYIINNRATINETAGAFGKSVSSIKKYINDADKLQRIDFELYQKVKEVQKIVELNGQI
soluble fraction (log2): 0.144

HMLVDWNYLEGKRGVTTTPLTPSGKARFGDDVVNVLSDGVLVSTGTPVRVLQVLGNRVLVEPLDG
soluble fraction (log2): 0.0957

HMRRMTEEQSKLFQGLVSIVQTTLVADMEKGAVTPLLIAEKVDFVADNLYPGKDIDRKEAVAELIRRFSLW
soluble fraction (log2): -0.339

HMLNKRQAEILAEVSRLKEITPSELYKLQPNVSSRTLRRDMDVLVNKGLVSQDGSTKSTKYTYL
soluble fraction (log2): 0.23

HMNADKEALIAAAYRNSLIENFGTENVERYEERFNKWADKHDRQGMPMYPTIEKWMNEDNIA
soluble fraction (log2): 0.111

HMSFDTFKKVFSNLVEKSGYSDAEIARRLGVNRSTISRWKSGEQSPPLPKVKEIANFFGVSPMVFVD
soluble fraction (log2): 0.0554

HMTKKSLFNQYLDDQKRLDIVTLQKAELVDLHKLADELNIDQYNQLKKNELIFKILQSNPSE
soluble fraction (log2): -0.135

HMKYRPGDVVTLRVARMGEMGAFLDAGTGNTNDDILLHKMQQTEEIKAGQDVKVYLYLDPNRRLTASMKL
soluble fraction (log2): -0.108

HMSENEIDELRRRFAREAMALMERKGEEVSRTRLAAELSVARARIDAVFPEESDLLEAVTAEWFA
soluble fraction (log2): -0.562

HMLISYRVDALANEAGLSVDTIRYYQKLGILDPPKRTGRHSEYSPDHLERLIEIRRLADAGLTLSQISEI
soluble fraction (log2): -2.46

HMPAWKINQELQATVIATKANQTRLRIEGQTFETQTAIALKPGQSLLIKVVSLEPQISFALI
soluble fraction (log2): -1.45

HMAIHTSVTEHGEHDLTVRMEMEQVFAIEMAVVSHEQATMLERTFKANAEAIYQKLLGVMTQEYP
soluble fraction (log2): -2.33

HMSDTLPRLLWNFQMAKRLDEMNGAEKRRYQLVLIHPQASEKERDYASSFAHQARMLGIEVAIRDS
soluble fraction (log2): -0.345

HMDINEIILKVASEKKTFKTSDVLEALDNNYTKQHVSALISAMVKKGILVKAGSTAKSTYALPENASLL
soluble fraction (log2): -0.264

HMAPTGTDRQTPHTRDELYLVLSGTGTFVNGDARHPFGPGDALFVPAGAEHRFEDFSDDFRTWVVFYGAEG
soluble fraction (log2): -0.162

HMSNLLKNILDVLEKEGPLKARKIALLLDSTRTTITHTTINSELYKALDLEGLTKNEQNIWSYVT
soluble fraction (log2): 0.00627

HMAEKRTAIITTARADIRQKPEATAPLAFEAVKDVVLELTDKPADGWVRVKHRDGSTGYIRINQI
soluble fraction (log2): 0.0711

HMGYSDEIGEFIKKLRTENHLTQKEFADKYGVTYQAVSKWENGKNLPDMSLIKQMSEDFNIGIDELLDGEK
soluble fraction (log2): -0.00754

HMNNKVAVKSGYYFELFDKDEIPATLEKMKQKVKIDNIKYDLYQGTSLEDERKIDTMFGEKMGYSIDDYI
soluble fraction (log2): 0.0224

HMGQELTPVERTALDIAARDGKVSTRILAQEAGIGLRTASKTLAALAERGLLTWHGTSRRDPQQHYTS
soluble fraction (log2): 0.00201

HMSRVHHGFNISIARNRKGLKQAALADMLGISQQRLSQLENQRVVKDEILEKVSEATGVSVEDLKTIE
soluble fraction (log2): -0.253

HMLKQLGRQEGRQEGAVDALRTVLALQIEQRFGPLDPTVQALIVAADIDALQRALSRVAVVSDLGAVFPP
soluble fraction (log2): -0.238

HMQITTVSPKNYAEAELIGQRFREGNPVVMDLSKLDSDLGQRLVDFASGLVFALNGTVERIAKKVFLLSP
soluble fraction (log2): -0.943

HMKVIETKYNTYVVKSGDTLYSVAKKYGISVTELKEINDLSNNTLSIGQKLLVPATTIIIDE
soluble fraction (log2): -0.117

HMKPNEYVSGETFPYLGKNYRLKVLHGSENSVRLKGGYFITTISNRDSQLSTVKSLLEDWYQTHADK
soluble fraction (log2): 0.0439

HMNESEALIARIENLPPIEDLTEKHAEEVKALMTVYSKLKMSDRILVTNYGVLKKDFDALVKKGFLTNED
soluble fraction (log2): 0.0784

HMPELTERELEVLLLTARGLPSSEAARLLFITRRTVAAHLTSIYGKLGARNKTEAVLAALKRGIIMLDQIG
soluble fraction (log2): -4

HMQENFYMILESEERRVLDVLVADQPESVATFLKLVSPFPNYKIILEHINEKALDFYEETVI
soluble fraction (log2): -0.303

HMDRSIGDIIAELRDLSAEQVERVLAHQRETGVRFGEAAVALGYASKEDVLFALSQQFHYPYAPEE
soluble fraction (log2): -0.146

HMSRLMIVTPDGRIMDDVPEFGEVRTTTDVNGRVLVLDRNNVVIGFEMTPREYRREFGRNPF
soluble fraction (log2): -0.643

HMDKAGWLPARVRLADYPALKQLAWQVQGVDELTPREALGIYERNWRHLDEAALLPRERNLIDALRLAFG
soluble fraction (log2): -0.207

HMDVRKSISDLKALGLSDAAVTVYGTIGNKPVHIDKIVSELGIPVFKVLTALTQLEMKGLVTAMQGRMYVL
soluble fraction (log2): -1.01

HMGIDISAFSETALQVLRLQAAGYTAKEISEKLHITPRTVKYHASQNYRKLDAKNLVDAVQIAQALHI
soluble fraction (log2): -1.26

HMDYKSTLQELVQTVKKSVTYEVIDEEGPSHNKTFTSIVKIDGIVMGKGTAGSKKASEQEAARDALSKR
soluble fraction (log2): 0.271

HMSVPRPSAVEVTSLVTGVRDLLPHLGEGYVERVLVEFGFKVDETINALLEGNLPKHLQDLDPSLTKEI
soluble fraction (log2): -0.662

HMVTIYQRIMLVLEDKQVSVNALSKLVDMSQTTLNTQLKGERTLSANVVAKVLVAYPDVSAEWLMRGVGTM
soluble fraction (log2): 0.362

HMNQDQDLSRIKGIGPEMVDRLHAQGVETLEQIAAMQMEQLKKLDQQISGNGKAVREQWAEQAKQLLTT
soluble fraction (log2): 0.0638

HMEPLIRTLEEQIAEKIKNYRKGTRVYDAEHVDRWISQLPEEERMVVLTETNRLLEQNYVDQAKLME
soluble fraction (log2): -0.107

HMDARSTHIAAIHVLKSKLQLQDSDYRALLLTLTGQTSSKDLSEHQRRAVRNHMQQLAERMGVVQ
soluble fraction (log2): -0.533

HMKITININIETLSHHIKQSGVPLGRLQESVPDYNEIVTGNKSPTYQQLEKISKLIRVPLGLLVIESPL
soluble fraction (log2): 0.268

HMFQPFFENLRKASIPVSLREYLTFLEGMKKGLVTYDIEAFYFLARAAMVKDERNIDKFDRAFSATFKG
soluble fraction (log2): -0.287

HMTKDEIIIQSIIDAAKKLMQQYGLNKTTMEDIAKEAGKGKSTLYHYFKSKEEIFDQVINQEID
soluble fraction (log2): -0.0722

HMKKTAAKVLGESEGKPVTVQSGRYGPYVQLGSIRATLPKDLEQDDVTLDRALELISAKAERAGK
soluble fraction (log2): 0.122

HMEMDITIQMRTLVEELNRASDAYYNGRGELMTDYEWDAKFDQLKQLESQSGVVLPDSPTHRV
soluble fraction (log2): -0.162

HMSRTLLVYVTGAVRQPGVYELPEGSRFFDAVKAAGDVLPYAVMEDINMAEPLSDGMKIHIPLDPEQ
soluble fraction (log2): -0.125

HMVNYKEILRLAHEGYSQRQIATNIGNSRNTVSEVLDAAKAANIAWPPEETVTNEQLGAILFPNRH
soluble fraction (log2): 0.204

HMGRRSKAMLSSALDAVPGLGEMRRKALISQFGSLKKLRGATPEEIAAVPGIGPKLAAAVHEAVSG
soluble fraction (log2): 0.0505

HMNVPFGFDEVNGKLVKNEEEQAIISEIKSLKNKGLSLRKIAEALNGRGIATKNGKAWTAVQIQRIA
soluble fraction (log2): -0.0386

HMTVSADQTTADAVIKLIDAIGTVSKNSGSAISAARSGYDALTDAQKKLVTNYNKLTQAEQVFSSLS
soluble fraction (log2): 0.129

HMDAATDAIKAEVRALLEMANAQGIDTESIMLEAHEQTRNATEQDYYEAAKSALEAAIAGSNRDR
soluble fraction (log2): 0.0377

HMKEPIYQTILSALILELNTNHFRKNDPFYSESELRKKYQVSSTTVVRVLNMLADQGYIYRIQGKGSFVSK
soluble fraction (log2): -2.37

HMTTKEEAAYQAIRSAIIDGELKPGQSVTIRDLASRFDLGRTPITDAMKHLALDGWLETTTGVGTRV
soluble fraction (log2): -0.106

HMSLSIKINHESVGLRLDQFLQEHYYKQQSRSYVQHAIKEGYILVNGQSVKNGYMLKLDDLIELEAI
soluble fraction (log2): -1.59

HMEVSKETFPAYVAVDSLPVYKSASTSSSKVTTIDFGREVTVVETRGGWAKIQYGSYKGFAEIEGMSKN
soluble fraction (log2): -0.368
